Experimental data: publication PMC11564776, “Enzyme stabilisation due to incorporation of a fluorinated non-natural amino acid at the protein surface” (Scientific Reports, 2024)

Biological target: the molecule itself
Test: SEC; Zorbax-GF250 column, 1 mL/min, 200 mM sodium phosphate pH 7.0, column at room temperature; holo-TK samples stored at 4 °C or heated 15 min at 21 °C or 50 °C; homodimer and monomer peaks combined as 'native' because dilution during SEC can cause partial dissociation to monomer

B1: wild-type E. coli transketolase (enzyme)
chain: SSRKELANAIRALSMDAVQKAKSGHPGAPMGMADIAEVLWRDFLKHNPQNPSWADRDRFVLSNGHGSMLIYSLLHLTGYDLPMEELKNFRQLHSKTPGHPEVGYTAGVETTTGPLGQGIANAVGMAIAEKTLAAQFNRPGHDIVDHYTYAFMGDGCMMEGISHEVCSLAGTLKLGKLIAFYDDNGISIDGHVEGWFTDDTAMRFEAYGWHVIRDIDGHDAASIKRAVEEARAVTDKPSLLMCKTIIGFGSPNKAGTHDSHGAPLGDAEIALTREQLGWKYAPFEIPSEIYAQWDAKEAGQAKESAWNEKFAAYAKAYPQEAAEFTRRMKGEMPSDFDAKAKEFIAKLQANPAKIASRKASQNAIEAFGPLLPEFLGGSADLAPSNLTLWSGSKAINEDAAGNYIHYGVREFGMTAIANGISLHGGFLPYTSTFLMFVEYARNAVRMAALMKQRQVMVYTHDSIGLGEDGPTHQPVEQVASLRVTPNMSTWRPCDQVESAVAWKYGVERQDGPTALILSRQNLAQQERTEEQLANIARGGYVLKDCAGQPELIFIATGSEVELAVAAYEKLTAEGVKARVVSMPSTDAFDKQDAAYRESVLPKAVTARVAVEAGIADYWYKYVGLNGAIVGMTTFGESAPAELLFEEFGFTVDNVVAKAKELL
notes: transketolase (TK) of E. coli, wild-type gene in plasmid pQR791; the introduction gives the domains as residues 1-322 (PP), 323-539 (Pyr) and 540-663 (C-terminal); Used as holo-TK with ThDP and MgCl2; also called WT TK; WT-TK; source: E. coli XL-10-Gold with plasmid pQR791, purified (Ni-NTA)
Question: Does B1 bind?
Answer: binds
